The record followed here is paper PMC4945389.

Data set [1] can be described thus: cycloheximide chase 12 h, Western blot, HEK293. The note with it: glycan changed form; control: UT-A3 alone.
The nature of data set [2]: surface biotinylation, HEK293. The note with it: glycan changed form; control: UT-A3 alone.
Data set [3] in a line: surface biotinylation, Xenopus oocytes.
A short description of data set [4]: FSK-stimulated surface biotinylation, HEK293. The note with it: glycan lost; control: wild type.
The nature of data set [5]: FSK-stimulated total UT-A3, Western blot, HEK293. The note with it: glycan lost; control: wild type. For orientation: A western blot detects proteins with antibodies after separation by electrophoresis.
Where [6] appears, read: glycan lost, control: wild type UT-A3, untreated.

B1: UT-A3: ST6GalI co-transfection (protein)
parent chain: MSDHPLKEMSDNNRSPPLPEPLSSRYKLYESELSSPTWPSSSQDTHPALPLLEMPEEKDLRSSDEDSHIVKIEKPNERSKRRESELPRRASAGRGAFSLFQAVSYLTGDMKECKNWLKDKPLVLQFLDWVLRGAAQVMFVNNPLSGLIIFIGLLIQNPWWTIAGALGTVVSTLAALALSQDRSAIASGLHGYNGMLVGLLVAVFSEKLDYYWWLLFPVTFASMACPVISSALSTVFAKWDLPVFTLPFNIALTLYLAATGHYNLFFPTTLVKPASSAPNITWSEIEMPLLLQTIPVGVGQVYGCDNPWTGGVILVALFISSPLICLHAAIGSIVGLLAALTVATPFETIYTGLWSYNCVLSCVAIGGMFYVLTWQTHLLALVCALFCAYTGAALSNMMAVVGVPPGTWAFCLSTLTFLLLTSNNPGIHKLPLSKVTYPEANRIYFLTAKRSDEQKPPNGG
Regarding B1, the degradation_or_half_life result in data set [1] was “increases”. The localisation_or_trafficking entry in data set [2] is “increases”.

B2: UT-A3: ST6GalI cRNA co-injection (protein)
parent chain: MSDHPLKEMSDNNRSPPLPEPLSSRYKLYESELSSPTWPSSSQDTHPALPLLEMPEEKDLRSSDEDSHIVKIEKPNERSKRRESELPRRASAGRGAFSLFQAVSYLTGDMKECKNWLKDKPLVLQFLDWVLRGAAQVMFVNNPLSGLIIFIGLLIQNPWWTIAGALGTVVSTLAALALSQDRSAIASGLHGYNGMLVGLLVAVFSEKLDYYWWLLFPVTFASMACPVISSALSTVFAKWDLPVFTLPFNIALTLYLAATGHYNLFFPTTLVKPASSAPNITWSEIEMPLLLQTIPVGVGQVYGCDNPWTGGVILVALFISSPLICLHAAIGSIVGLLAALTVATPFETIYTGLWSYNCVLSCVAIGGMFYVLTWQTHLLALVCALFCAYTGAALSNMMAVVGVPPGTWAFCLSTLTFLLLTSNNPGIHKLPLSKVTYPEANRIYFLTAKRSDEQKPPNGG
In the case of B2, the localisation_or_trafficking entry in data set [3] (glycan changed form, control: UT-A3 cRNA alone) is “increases”.

B3: UT-A3: N279Q (protein)
parent chain: MSDHPLKEMSDNNRSPPLPEPLSSRYKLYESELSSPTWPSSSQDTHPALPLLEMPEEKDLRSSDEDSHIVKIEKPNERSKRRESELPRRASAGRGAFSLFQAVSYLTGDMKECKNWLKDKPLVLQFLDWVLRGAAQVMFVNNPLSGLIIFIGLLIQNPWWTIAGALGTVVSTLAALALSQDRSAIASGLHGYNGMLVGLLVAVFSEKLDYYWWLLFPVTFASMACPVISSALSTVFAKWDLPVFTLPFNIALTLYLAATGHYNLFFPTTLVKPASSAPNITWSEIEMPLLLQTIPVGVGQVYGCDNPWTGGVILVALFISSPLICLHAAIGSIVGLLAALTVATPFETIYTGLWSYNCVLSCVAIGGMFYVLTWQTHLLALVCALFCAYTGAALSNMMAVVGVPPGTWAFCLSTLTFLLLTSNNPGIHKLPLSKVTYPEANRIYFLTAKRSDEQKPPNGG
B3: in data set [4], the “localisation_or_trafficking, other: % increase by FSK” value is “decreases”. The “expression_or_secretion, other: % increase by FSK” value in data set [5] is recorded as “decreases”. In addition, in data set [3] (setting [6]), the localisation_or_trafficking result is on record as “decreases”.

B4: UT-A3: tunicamycin (protein)
parent chain: MSDHPLKEMSDNNRSPPLPEPLSSRYKLYESELSSPTWPSSSQDTHPALPLLEMPEEKDLRSSDEDSHIVKIEKPNERSKRRESELPRRASAGRGAFSLFQAVSYLTGDMKECKNWLKDKPLVLQFLDWVLRGAAQVMFVNNPLSGLIIFIGLLIQNPWWTIAGALGTVVSTLAALALSQDRSAIASGLHGYNGMLVGLLVAVFSEKLDYYWWLLFPVTFASMACPVISSALSTVFAKWDLPVFTLPFNIALTLYLAATGHYNLFFPTTLVKPASSAPNITWSEIEMPLLLQTIPVGVGQVYGCDNPWTGGVILVALFISSPLICLHAAIGSIVGLLAALTVATPFETIYTGLWSYNCVLSCVAIGGMFYVLTWQTHLLALVCALFCAYTGAALSNMMAVVGVPPGTWAFCLSTLTFLLLTSNNPGIHKLPLSKVTYPEANRIYFLTAKRSDEQKPPNGG
For the protein B4, the localisation_or_trafficking result in data set [3] (setting [6]) is “decreases”.

B5: UT-A3: ST3GalIV co-transfection (protein)
parent chain: MSDHPLKEMSDNNRSPPLPEPLSSRYKLYESELSSPTWPSSSQDTHPALPLLEMPEEKDLRSSDEDSHIVKIEKPNERSKRRESELPRRASAGRGAFSLFQAVSYLTGDMKECKNWLKDKPLVLQFLDWVLRGAAQVMFVNNPLSGLIIFIGLLIQNPWWTIAGALGTVVSTLAALALSQDRSAIASGLHGYNGMLVGLLVAVFSEKLDYYWWLLFPVTFASMACPVISSALSTVFAKWDLPVFTLPFNIALTLYLAATGHYNLFFPTTLVKPASSAPNITWSEIEMPLLLQTIPVGVGQVYGCDNPWTGGVILVALFISSPLICLHAAIGSIVGLLAALTVATPFETIYTGLWSYNCVLSCVAIGGMFYVLTWQTHLLALVCALFCAYTGAALSNMMAVVGVPPGTWAFCLSTLTFLLLTSNNPGIHKLPLSKVTYPEANRIYFLTAKRSDEQKPPNGG
Regarding B5, in data set [2], the localisation_or_trafficking result was “no change”.
